Reference: patent US8383581B2, “Short-chain peptides as parathyroid hormone (PTH) receptor agonist” (Cadila Healthcare Limited, priority 2009, dated 2013)
Where no end group is shown, it is not given here. [ ]: non-standard residue; d: D form. Arg(NO2) = N=C(NCCC[C@H](N)C(=O)O)N[N+](=O)[O-]; αMePhe(2,6-F2) = C[C@](N)(Cc1c(F)cccc1F)C(=O)O; αMePhe(2-F) = C[C@](N)(Cc1ccccc1F)C(=O)O; hCit = NC(=O)NCCCC[C@H](N)C(=O)O; Cit = NC(=O)NCCC[C@H](N)C(=O)O; Nle = CCCC[C@H](N)C(=O)O; Ac5c = NC1(C(=O)O)CCCC1; Aib = CC(C)(N)C(=O)O

T1: rat PTH-1R (rat PTHR endogenously expressed on UMR-106 rat osteosarcoma cells) (rat, UniProt P25961 27-591)
T1 sequence (looked up): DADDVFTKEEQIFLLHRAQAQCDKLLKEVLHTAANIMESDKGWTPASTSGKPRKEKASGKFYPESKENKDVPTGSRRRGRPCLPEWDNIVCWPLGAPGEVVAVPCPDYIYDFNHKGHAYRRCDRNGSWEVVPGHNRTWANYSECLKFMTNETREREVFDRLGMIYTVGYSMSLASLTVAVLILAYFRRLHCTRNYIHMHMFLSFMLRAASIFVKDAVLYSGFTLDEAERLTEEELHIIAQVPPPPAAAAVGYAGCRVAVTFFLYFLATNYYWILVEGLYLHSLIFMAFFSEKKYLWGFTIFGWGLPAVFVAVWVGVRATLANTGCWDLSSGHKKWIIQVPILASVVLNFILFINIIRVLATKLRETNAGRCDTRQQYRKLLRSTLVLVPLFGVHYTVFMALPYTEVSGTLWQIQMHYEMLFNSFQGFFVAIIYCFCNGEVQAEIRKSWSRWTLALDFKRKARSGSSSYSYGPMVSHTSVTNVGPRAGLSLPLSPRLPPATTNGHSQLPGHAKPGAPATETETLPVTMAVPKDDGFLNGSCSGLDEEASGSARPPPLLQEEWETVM


Molecular target: T1, rat PTH-1R (rat PTHR endogenously …)
Assay: cell-based or functional assay

| Binder | cAMP released with respect to control, 1 nM peptide, UMR-106 cells | cAMP released with respect to control, 10 nM peptide, UMR-106 cells | cAMP released with respect to control, 100 nM peptide, UMR-106 cells |
| --- | --- | --- | --- |
| [Aib]V[Aib]EIQ[αMePhe(2,6-F2)][Nle]HQ[hCit]A[Aib][αMePhe(2-F)] [Seq. ID. 429] | 39 percent of control | 101 percent of control | 120 percent of control |
| [Aib]V[Aib]EIQ[αMePhe(2-F)][Nle]HQ[hCit][Aib][Cit][αMePhe(2,6-F2)] [Seq. ID. 418] | 29 percent of control | 52 percent of control | 69 percent of control |
| [Aib]V[Aib]EIQ[αMePhe(2,6-F2)][Nle]HQ[Cit]A[Arg(NO2)][αMePhe(2-F)] [Seq. ID. 397] | 38 percent of control | 102 percent of control | 117 percent of control |
| [Aib]V[Aib]EIQ[αMePhe(2,6-F2)][Nle]HQ[hCit]A[Arg(NO2)][αMePhe(2-F)] [Seq. ID. 461] | 56 percent of control | 101 percent of control | 126 percent of control |
| [Ac5c]V[Aib]EIQ[αMePhe(2-F)][Nle]HQ[Cit][Aib][Aib][αMePhe(2,6-F2)] [Seq. ID. 372] | 32 percent of control | 71 percent of control | 99 percent of control |
| [Ac5c]V[Aib]EIQ[αMePhe(2-F)][Nle]HQ[hCit][Aib][αMePhe(2,6-F2)][αMePhe(2-F)] [Seq. ID. 444] | 26 percent of control | 67 percent of control | 81 percent of control |
